According to article PMC11044841 (2024):

Target: GST-NTF2L (GST-tagged NTF2-like domain of G3BP1) (human)
Assay: SPR

GST-NTF2L (GST-tagged NTF2-like domain of G3BP1) (human), sequence (chain, as listed by the source): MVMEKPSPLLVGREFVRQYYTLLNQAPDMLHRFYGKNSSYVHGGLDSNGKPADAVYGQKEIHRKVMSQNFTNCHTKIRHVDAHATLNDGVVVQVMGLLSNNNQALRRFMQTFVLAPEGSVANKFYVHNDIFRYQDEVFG

B1: USP10 (1–25) peptide (peptide)
peptide: MALHSPQYIFGDFSPDEFNQFFVTP
B1 gave a Kd of 110 nM.

B2: SFV nsP3 (449–473) peptide (peptide)
chain: LTFGDFDEHEVDALASGITFGDFDD
B2 gave a Kd of 2500 nM.
